Measurements as given in PMC9097459.

Experiments:
[1] = molecular target: FlSp NTTrp (Phe 11 to Trp mutant of FlSp NT) (Nephila clavipes); assay: SEC; Superdex 75 Increase 10/300 GL, 200 μl of 2 mg/ml protein, 20 mM MES, 154 mM NaCl, 1 mM EDTA, pH 5.5; apparent MW from calibrants; monomer to dimer
[2] = molecular target: FlSp NT_(E79QE84QE119Q) (Nephila clavipes); assay: SEC-MALS; Superdex 75 Increase 10/300 GL, 50 μg loaded, 20 mM MES, 150 mM NaCl, 1 mM EDTA, pH 5.5, room temperature; monomer to dimer
[3] = molecular target: WT FlSp NT (N-terminal domain of flagelliform spidroin from Nephila clavipes) (Nephila clavipes); assay: as above
[4] = molecular target: WT FlSp NT (N-terminal domain of flagelliform spidroin from Nephila clavipes) (Nephila clavipes); assay: SEC; Superdex 75 Increase 10/300 GL, 200 μl of 2 mg/ml protein, 20 mM MES, 154 mM NaCl, 1 mM EDTA, pH 5.5; apparent MW from calibrants; monomer to dimer
[5] = molecular target: FlSp NT* (constitutive monomer mutant, Asp 41 and Lys 65 swapped); assay: SEC-MALS; details: Superdex 75 increase SEC column
FlSp NT_(E79QE84QE119Q) = assay: SEC-MALS; details: Superdex 75 increase SEC column
[6] = molecular target: T1, FlSp NT_(E79QE84QE119QE130Q); assay: SEC-MALS; details: chain shown with the change, Superdex 75 increase SEC column
T1 chain: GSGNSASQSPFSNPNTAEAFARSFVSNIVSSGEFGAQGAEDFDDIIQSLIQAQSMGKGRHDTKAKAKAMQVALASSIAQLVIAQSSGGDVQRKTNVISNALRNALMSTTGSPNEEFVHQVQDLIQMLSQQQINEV

[7] = pH 5.5 versus pH 8.0, parent: 2.0

## FlSp NTTrp (Phe 11 to Trp mutant of FlSp NT) (domain or fragment)
[1]
  apparent MW ratio between pH 5.5 and 8.0: 1.2

## FlSp NT_(E79QE84QE119Q) (domain or fragment)
[2]
  MW ratio between pH 5.5 and 8.0: 1.7

## WT FlSp NT (N-terminal domain of flagelliform spidroin from Nephila clavipes) (domain or fragment)
[3]
  stoichiometry N: 2
[4]
  apparent MW ratio between dimer (pH 5.5) and monomer (pH 8.0): 1.3

## WT FlSp NT (N-terminal domain of flagelliform spidroin from Nephila clavipes) D41K; K65D
[5]; pH 5.5, parent: 26.0
  other: molecular mass by SEC-MALS: 13.4 kDa
[5]; [7]
  other: MW ratio between pH 5.5 and pH 8.0: 1
[5]; pH 8.0, parent: 13.1
  other: molecular mass by SEC-MALS: 14.1 kDa

## WT FlSp NT (N-terminal domain of flagelliform spidroin from Nephila clavipes) E79Q; E84Q; E119Q
FlSp NT_(E79QE84QE119Q); pH 5.5, parent: 26.0
  other: molecular mass by SEC-MALS: 24.4 kDa
FlSp NT_(E79QE84QE119Q); pH 8.0, parent: 13.1
  other: molecular mass by SEC-MALS: 14.3 kDa

B1: WT FlSp NT (N-terminal domain of flagelliform spidroin from Nephila clavipes) E79Q; E84Q; E119Q; E130Q (protein)
chain: T1 chain
[6]; pH 5.5, parent: 26.0
  other: molecular mass by SEC-MALS: 20.7 kDa
[6]; [7]
  other: MW ratio between pH 5.5 and pH 8.0: 1.6
[6]; pH 8.0, parent: 13.1
  other: molecular mass by SEC-MALS: 13.1 kDa
